Patent publication US12674174B2, “Protoporphyrinogen oxidase (PPO) resistance plant” (PLANTARC BIO LTD., priority 2022, dated 2026)

B1: SEQ ID NO: 97: PPO from Rhodotorula sp. Protein. (protein, listed as Rhodotorula sp.)
chain: MQSYSGNALARQSVPIKPIRRRTPRLNLIRSLPSPRFFVTSPSSSQRHDHPYHTLAILGGGLSGLSTAHYFLRTLSPSLRDQTRIVVLEKEERVGGWCRAVRIQNGRRLGENEKPEGTEDLLVFETGPRSVRPVGLLGWLTIEMAHELGLTPSIVTVPKSAPSARNRFIYTGHRSSTSISPILKAALPTIPSALLEPFRPRSPLHDDPSGLADESVDSFIARRFGRRLADELASAGIHGIYAGDTRRLSVRAVLPALWELEKEWGSVVIGALFGSFARRRGWKKNSPWRMRQQAETEEMERVKERIRAKGGEALVEDMEKASVWGVKGGLQVVTETLREKLEAEGVEFWMGEKGKVEHVEKVDGGWQIRTSSGALDASQLVTTIPQLLPSSLAPPALPATTVSVVNLAFEKPAPGSPPLHPAGFGYLIPRTVPSSLNPHRALGVIFDSDVMPDVDSSSSLGLTKLSLLLGGSYWLDRHPPPQPSHDDLVNAALETLRLHFPDRPIPKPVHAFTHTHVNCIPQVPPGFMPSFRAFGDRLREAGNVAVVGGGFAAVGVNGCVKAAWEVGSAMAQAVNAQAGGKEGEGEEKVREAVARTVKTGTEMWEL
B2: SEQ ID NO: 96: PPO from Trichoderma sp. Protein. (protein, listed as Trichoderma sp.)
chain: MSLKRADGAAMAFLRLSSAVCGRRRIPAGGLPADANVAVLGGGLTGLTTAYYLAKWLPPTAKITLLEASDRLGGWIKTDRVPVKVGGVEGVVSFERGPRSLSSLNKSTWRFDDLVLWDLALDLGLRVVSPPDKPRYIYYPDHLVPLPPHTSLAAFASEPLVLESLWAGFGYVLRRLFSRKAGVPVQDLSIADWIQHITGSRAVAENLASAMVHGIYGGDIYTLSARSVLDRFYWVHYLPALGPDVRHMALSEQVFMEAMGQDPLIRKLAQQPRGALLNFGEAGMETLPIALADALNGQANVEVKLGAKVTGLEYESETEMMKITTTGQDDSPAEKYHKVISTLPSQHLARITDTLPSLASSHAVSIMTVNIWYPQTNLKPPGFGYLIPLSVPAEQNPERALGVFFDSDVGVRGPDEPAGTKLFVLMGGHYYDKKQPGASVRVPSEEEAIEQAKRVLERHLGIPQSTPCFAMARLASECIPQYVCGHQDTMAAADEDLRDSFDGRLAVAGGSYTKIGAMGALRNGYDIANTVVREDWLTTGLEQLEFPTQFCGVPTERIPVRRFSRR
B3: SEQ ID NO: 98: PPO from Hesseltinella sp. Protein. (protein, listed as Hesseltinella sp.)
chain: MPRSIVVLGGGISGLSAAYYLSRLVPQAHIRLIESNKRAGGFIKTQQVNDHLIFEAGPRTLRPHGTSGTVLLDMIKDLDLSPLLVNIPKSHPSAQHRYIEYHGQINQLPSGLADMLLHSPPIMDSVITAGMREPFLARASTTKDESLYNFMERRFNEHTALNLMGAMAHGIYAGDAKQLSVHSTFPILAACEQEYGSVVLGMLSGKLSVESPRERQLADACRAKDPEWFKQMQQSSVLGFLPGLGALPSRLTQFLSSQPNVSMQLGETVSRLDGQSSHQIEITTSQGQIYHADHIVSTLPSHALARISMPTTTSLPHLTHNPSADVALVNLAYEKCKVKPGLDGFGFLTPHADTMPPSQFPGLLGMIFDSNSLGVQDQDSNMVRFTAMIGGADWNLAFGSLHDNDAISSKALTMATAALSKYLEIHESPAHYHCRILRQCIPQYLVGHRQRMNELHAALQHSFGHTMSVTGASYLGVSVPDCIKHSRMLIEDLVDTGALGSKQAVITGLEKVTLPMYYKL

What follows are molecules tested on Arabidopsis plants. Settings: Table 1; yes/no.

Question: Which “High concentration herbicide tolerance” value does the source give for B1 here?
Answer: yes

Question: B2 was tested. Which “High concentration herbicide tolerance” value did it give?
Answer: yes

Question: With B3 as the molecule, how does the “High concentration herbicide tolerance” value read?
Answer: yes

Same assay, conditions: Table 2; yes/no; FIG. 6C legend: Star 1.25 kg/hectare

Question: For B1, which Herbicide tolerance is on record?
Answer: yes

Question: How did the Herbicide tolerance turn out when B2 was run?
Answer: yes

Question: With B3 as the molecule, how does the Herbicide tolerance read?
Answer: yes
